Here are results for 58 variants from the FLAb antibody collection (doi:10.7554/elife.23156).

B1: scFv; the commonest letter at each place (parent)
chain 1: EVKLDETGGGLVQPGRPMKLSCVASGFTFSDYWMNWVRQSPEKGLEWVAQIRNKPYNYETYYSDSVKGRFTISRDDSKSSVYLQMNNLRVEDMGIYYCTGSYYGMDYWGQGTSVTVS
chain 2: DVVMTQTPLSLPVSLGDQASISCRSSQSLVHSNGNTYLRWYLQKPGQSPKVLIYKVSNRFSGVPDRFSGSGSGTDFTLKISRVEAEDLGVYFCSQSTHVPWTFGGGTKLEIK

The variants in the data set “fluorescein” derive from B1. In words: Kd (Tite-Seq). As to conditions: with fluorescein; format: scFv 4-4-20, heavy + light.
The variants in data set [1] derive from B1. In words: yeast surface expression (ratio to wild type); higher = more expressed. As to conditions: format: scFv 4-4-20, heavy + light.

The Kd is the equilibrium constant for the complex coming apart. With chain 1 S101N W108D, the dissociation constant Kd in the data set with fluorescein is not below 10 µM. Further, in data set [1], the yeast surface expression is 0.399.
For chain 1 T28A D31W, in that order: 0.00638 µM and 0.862.
Take chain 1 T28A D31L: the dissociation constant (Kd) in the data set with fluorescein came to 0.00655 µM. The yeast surface expression in data set [1] is 0.713.
For chain 1 T28A D31M the same measures were 0.00239 µM and 0.955.
For the variant chain 1 T28D D31E V37E, the Kd with fluorescein was not below 10 µM. Moreover, in data set [1], the yeast surface expression was 0.567.
On to chain 1 T28C M34L W36M, for which the Kd with fluorescein is not below 10 µM. Besides, in data set [1], the yeast surface expression is 0.657.
With chain 1 S101P W108T, the Kd with fluorescein is not below 10 µM. Further, the yeast surface expression in data set [1] is 0.168.
For chain 1 T28G W36N, in that order: not below 10 µM and 0.456.
With chain 1 S101Q Y103L D106G, in the data set with fluorescein, the Kd is not below 10 µM. Besides, the yeast surface expression in data set [1] came out at 0.41.
As for chain 1 S101R Y103K, the Kd with fluorescein is not below 10 µM. Besides, in data set [1], the yeast surface expression came out at 0.984.
As for chain 1 S101P Y103R, in the data set with fluorescein, the Kd is not below 10 µM. The yeast surface expression in data set [1] was 0.277.
For chain 1 T28I S30M, in that order: 0.00104 µM and 0.769.
For chain 1 T28A W33S the same measures were not below 10 µM and 0.826.
For chain 1 T28A W33I the same measures were not below 10 µM and 1.15.
On to chain 1 S101N Y103C, for which the Kd with fluorescein was not below 10 µM. The yeast surface expression in data set [1] was 0.438.
For chain 1 S101N Y103N the same measures were not below 10 µM and 1.21.
For chain 1 S101N Y103L, the Kd with fluorescein is not below 10 µM. In addition, the yeast surface expression in data set [1] stood at 0.964.
Regarding chain 1 T28I N35R, the Kd with fluorescein is not below 10 µM. In data set [1], the yeast surface expression came out at 0.849.
Regarding chain 1 S101R W108H, in the data set with fluorescein, the Kd was not below 10 µM. Besides, the yeast surface expression in data set [1] was 0.261.
For chain 1 S101R W108Q, in that order: not below 10 µM and 0.346.
As for chain 1 S101R W108V, in the data set with fluorescein, the equilibrium dissociation constant (Kd) was not below 10 µM. In data set [1], the yeast surface expression stood at 0.24.
For chain 1 S101R W108L, in the data set with fluorescein, the Kd was not below 10 µM. For the same variant, the yeast surface expression in data set [1] is 0.22.
Turning to chain 1 T28A D31C N35A, the Kd with fluorescein was not below 10 µM. For the same variant, the yeast surface expression in data set [1] was 0.411.
For chain 1 S101L Y102V the same measures were not below 10 µM and 0.401.
For chain 1 S101L Y102W, the equilibrium dissociation constant (Kd) with fluorescein is not below 10 µM. In data set [1], the yeast surface expression stood at 0.407.
As to chain 1 S101L Y102A, the Kd with fluorescein was not below 10 µM. The yeast surface expression in data set [1] stood at 0.514.
For chain 1 T28H W36G, in that order: not below 10 µM and 2.76.
For chain 1 T28H W36L the same measures were not below 10 µM and 0.454.
For chain 1 S101T Y103E G104K the same measures were not below 10 µM and 0.854.
On to chain 1 S101R D106T, for which the Kd in the data set with fluorescein is not below 10 µM. Moreover, the yeast surface expression in data set [1] was 0.466.
For chain 1 S101R D106L, in that order: not below 10 µM and 0.0991.
chain 1 S101R D106N: in the data set with fluorescein, the dissociation constant (Kd) is not below 10 µM. In addition, the yeast surface expression in data set [1] came out at 0.225.
Take chain 1 T28G Y32M: in the data set with fluorescein, the Kd is not below 10 µM. Besides, the yeast surface expression in data set [1] was 1.24.
Consider chain 1 T28G Y32K, for which, in the data set with fluorescein, the dissociation constant (Kd) stood at 7.33 µM. Also, in data set [1], the yeast surface expression was 0.795.
Take chain 1 T28I W36A: the Kd in the data set with fluorescein was not below 10 µM. The yeast surface expression in data set [1] was 0.354.
Regarding chain 1 S101T Y102H, in the data set with fluorescein, the Kd is not below 10 µM. Besides, the yeast surface expression in data set [1] worked out at 0.748.
For chain 1 S101T Y102M, in that order: not below 10 µM and 0.778.
For chain 1 S101W Y102Q W108A, in that order: not below 10 µM and 0.239.
Take chain 1 S101Y D106K: the Kd in the data set with fluorescein is not below 10 µM. In addition, the yeast surface expression in data set [1] worked out at 0.117.
For chain 1 S101Y D106E the same measures were not below 10 µM and 0.627.
On to chain 1 T28I Y32S, for which the Kd with fluorescein came to 2.23 µM. The yeast surface expression in data set [1] was 0.842.
For chain 1 T28I Y32T the same measures were not below 10 µM and 0.869.
For chain 1 T28I Y32C, in that order: 2.23 µM and 0.946.
For chain 1 T28H D31K, in that order: 0.00606 µM and 0.589.
In the case of chain 1 S101W G104W, the Kd in the data set with fluorescein is not below 10 µM. Further, the yeast surface expression in data set [1] worked out at 0.254.
For chain 1 S101W G104H the same measures were not below 10 µM and 0.376.
For chain 1 S101W G104Y, in that order: not below 10 µM and 0.203.
chain 1 S101M Y103A: the Kd in the data set with fluorescein is not below 10 µM. Moreover, the yeast surface expression in data set [1] was found to be 0.658.
For chain 1 S101M Y103D, in that order: not below 10 µM and 0.917.
Consider chain 1 S101M Y103G, for which the Kd with fluorescein is not below 10 µM. The yeast surface expression in data set [1] stood at 0.868.
For chain 1 T28F D31A the same measures were 0.0507 µM and 0.637.
On to chain 1 S101T W108C, for which the Kd with fluorescein is not below 10 µM. Moreover, the yeast surface expression in data set [1] is 0.471.
chain 1 S101V G109P: the Kd with fluorescein is not below 10 µM. The yeast surface expression in data set [1] was found to be 0.223.
For chain 1 T28F V37P, in that order: 0.000589 µM and 0.417.
For chain 1 T28F V37C the same measures were 0.00158 µM and 0.588.
For chain 1 T28C Y32P the same measures were not below 10 µM and 0.707.
For the variant chain 1 T28C Y32W, the dissociation constant Kd with fluorescein was not below 10 µM. Moreover, the yeast surface expression in data set [1] turned out to be 0.802.
For chain 1 S101N G104N the same measures were not below 10 µM and 0.806.
